From US6086895

Target: fibronectin (125I labelled)
Experiment: inhibition assay in tubes; control lysate undiluted; 125I fibronectin bound to S. aureus Cowan I cells (competitor)

Substance: lysate of E. coli TG1 with pUC18-vector without insert (negative control) (pool or library)
- % binding in relation to control without lysate: 83.3%
